Data set [1] relates to irritable bowel syndrome (IBS). The note with it: clinical trials; cited from earlier work.
The nature of data set [2]: High performance size-exclusion chromatography (HP-SEC): monomer, HMWS, LMWS. It is filed as physicochemical. The conditions noted are these: method test. On the procedure:
The ability of the HP-SEC method to detect changes in the monomer, HMWS and LMWS content was tested with stressed samples. […] Multiple freeze-thaw cycles had no influence on the SEC profile.

The conditions of data set [3]: in solution; cited from earlier work.
Data set [4] has as its system constipation predominant IBS (IBS-C). The note with it: cited from earlier work.

The source of these data is US11058748B2, “Stable liquid formulations of glucagon-like peptide 1 or analogues thereof” (Rose Pharma LLC, priority 2019, dated 2021).

As for “H-HVEGTFTSDVSSYLEGQAAKEFIAWLVKGRG-OH [ROSE-010]”, the “acute exacerbations of irritable bowel syndrome (IBS)” value in data set [1] is “reduce acute exacerbations of irritable bowel syndrome (IBS)”. In addition, in data set [2] (mechanical stress), the “overall signal intensity (HP-SEC)” value is “substantial loss”. Also, the SEC profile entry in data set [2] (multiple freeze-thaw cycles) is “no influence”. Moreover, the HMWS content result in data set [2] (one week storage at 40° C.) is on record as “slight increase”. Moreover, the noncovalent aggregates entry in data set [3] is “forms noncovalent aggregates in solution”. Also, the colonic transit result in data set [4] (at 48 h with 30 and 100 μg) was “accelerated colonic transit”. Besides, in data set [4], the “gastric emptying of solids” value is “delayed gastric emptying of solids”.
